Measured values from the Immune Epitope Database (IEDB).

Target: HLA-A*02:01
Assay: IEDB peptide-MHC binding, purified MHC/competitive/radioactivity; ≥ and ≤ were set here for values at or beyond the usual limits of such assays
Conditions: source organism: Homo sapiens

Sequence | IC50 [nM]
WLLGAAMVGA | 32.1
RLMKQDFSV | 46.3
RLLGSLNST | 167
VMGTLVALV | 27.8
VVMGTLVAL | 66.7
HLAVIGALL | 106
LLAGLVSLL | 95.2
RIWSWLLGA | 100
FLPWHRLFL | 112
SLHNLVHSFL | 263
FLRNQPLTFA | 139

Other lines, results leading:

IC50 [nM] | Sequence
76.3 | ALLAGLVSL
25.6 | FLLRWEQEI
38.5 | FLCWGPFFL
3.9 | NMVPFFPPV
104 | YVITTQHWL
15.6 | YAIDLPVSV
83.3 | SVMDPLIYA
205 | FLPWHRLFLL
26.3 | SLDDYNHLV
82 | VLTALLAGL
17.9 | AVIGALLAV
